From patent publication US20180155451A1 (published 2018)
Where two headings read alike, the source gives them in different places.

Assays:
[1] = biological target: T1, FcγRIIIa extracellular domain with C-terminal His tag (human, UniProt P08637 17-208); experiment: SPR (Biacore), antibody captured, FcγRIIIa as analyte, 1:1 Langmuir kinetic fit
T1 construct: extracellular domain; also called FcgRIIIa; CD16A
Excerpt: (§1) First, it was considered which H chain should be introduced with Y296W. GpH7-TA52 (SEQ ID NO: 44) resulting from the introduction of the mutation Y296W into GpH7-TA7 was constructed, and expressed and prepared in combination with GpH7-B78 according to the method described in Reference Example 1. Furthermore, GpH7-TA58 (SEQ ID NO: 45) resulting from the introduction of Y296W into GpH7-B78 was constructed, and expressed and prepared in combination with GpH7-TA22 according to the method described in Reference Example 1. To assess the effects of combinations with Y296W, the prepared antibodies were compared for the FcγRIIIa-binding activity according to the method described in Reference Example 2 (Table 16).
(§2) Analysis of interaction between objective antibody and the FcγR was carried out using Biacore T100 (GE Healthcare). HBS-EP+ (GE Healthcare) was used as the running buffer, and the measurement temperature was set to 25° C. Chips produced by immobilizing the antigen peptide by the amine coupling method to a Series S Sencor Chip CM5 (GE Healthcare), or alternatively, chips produced by allowing preliminarily biotinylated antigen peptides to interact with and immobilize onto a Series S Sensor Chip SA (certified) (GE Healthcare) were used. Antibodies of interest were captured onto an antigen peptide-immobilized chip, and allowed to interact to each FcγR diluted with running buffer. To regenerate and repeatedly use the chip, the antibodies captured on the chip were washed off by reacting 10 mM glycine-HCl, pH 1.5.
(§3) The FcγR-binding activity of each antibody was assessed primarily using as an indicator the FcγR-binding activity and dissociation constant for FcγR.

[2] = biological target: T1, FcγRIIIa extracellular domain with …; experiment: SPR (Biacore), ratio of KD values for FcγRIIIa
[3] = biological target: T1, FcγRIIIa extracellular domain with …; experiment: SPR (Biacore), ratio of KD values for FcγRIIIa; remark: listed apart in the source
Procedure: as §2

[4] = biological target: T1, FcγRIIIa extracellular domain with …; experiment: SPR (Biacore), ratio of KD values for FcγRIIIa; remark: listed apart in the source
Excerpt: as §1, §2

[5] = biological target: T1, FcγRIIIa extracellular domain with …; experiment: SPR (Biacore), antibody captured, FcγRIIIa as analyte, 1:1 Langmuir kinetic fit; remark: listed apart in the source
Procedure: as §2, §3

[6] = biological target: T1, FcγRIIIa extracellular domain with …; experiment: as above; remark: listed apart in the source
Summary of the method: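 Biacore T100 at 25° C in HBS-EP+; antibodies captured on antigen-peptide chips (amine-coupled CM5 or biotinylated peptide on SA), with FcγR in running buffer flowed over.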

[7] = biological target: T1, FcγRIIIa extracellular domain with …; experiment: SPR (Biacore), ratio of KD values for FcγRIIIa; remark: listed apart in the source
Excerpt: (§4) Then, GpH7-TA54 (SEQ ID NO: 46) resulting from the introduction of Y296W into GpH7-TA22 was constructed, and expressed and prepared in combination with GpH7-B78 according to the method described in Reference Example 1. Furthermore, GpH7-TA58 (SEQ ID NO: 45) resulting from the introduction of Y296W into GpH7-B78 was constructed, and expressed and prepared in combination with GpH7-TA22 according to the method described in Reference Example 1. To assess the effect of combination with Y296W, the prepared antibodies were compared for the FcγRIIIa-binding activity according to the method described in Reference Example 2 (Table 17).
as §2

[8] = biological target: T1, FcγRIIIa extracellular domain with …; experiment: SPR (Biacore), antibody captured, FcγRIIIa as analyte, 1:1 Langmuir kinetic fit; remark: listed apart in the source
Excerpt: as §4, §2, §3

Protein A = biological target: T2, Protein A (UniProt P38507 37-327); experiment: rProtein A Sepharose column, stepwise pH elution; fractions analysed by cation exchange chromatography
T2 construct: bought resin; construct not described; also called rProtein A Sepharose Fast Flow

T1 sequence (P08637 17-208): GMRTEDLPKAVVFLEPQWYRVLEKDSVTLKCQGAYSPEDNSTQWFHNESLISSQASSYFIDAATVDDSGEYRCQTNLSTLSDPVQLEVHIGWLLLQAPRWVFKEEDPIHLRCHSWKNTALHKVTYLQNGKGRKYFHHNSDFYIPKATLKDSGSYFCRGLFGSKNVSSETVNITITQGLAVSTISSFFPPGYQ

Row | Binder | KD ratio (KD of GpH7-TA7/GpH7-B78/GpL16-k0 divided by KD of the antibody) [3] [fold] | Kd [5] [nM] | binding result (Protein A) | also measured
1 | GpH7-TA7/GpH7-B78/GpL16-k0 (antibody, human IgG1, kappa, Heterodimerized anti-glypican-3 IgG1 variant: L234Y/G236W/S298A in one H chain, S239D/A330L/I332E in the other) heavy 1: QVQLVQSGAEVKKPGASVTVSCKASGYTFTDYEMHWIRQPPGEGLEWIGAIDPKTGDTAYSESFQDRVTLTADKSTSTAYMELSSLTSEDTAVYYCTRFYSYTYWGQGTLVTVSSASTKGPSVFPLAPSSKSTSGGTAALGCLVKDYFPEPVTVSWNSGALTSGVHTFPAVLQSSGLYSLSSVVTVPSSSLGTQTYICNVNHKPSNTKVDKKVEPKSCDKTHTCPPCPAPEYLWGPSVFLFPPKPKDTLMISRTPEVTCVVVDVSHEDPEVKFNWYVDGVEVHNAKTKPREEQYNATYRVVSVLTVLHQDWLNGKEYKCKVSNKALPAPIEKTISKAKGQPREPQVYTLPPSRKELTKNQVSLTCLVKGFYPSDIAVEWESNGQPENNYKTTPPVLDSDGSFFLYSKLTVDKSRWQQGNVFSCSVMHEALHNRYTQKSLSLSP heavy 2: QVQLVQSGAEVKKPGASVTVSCKASGYTFTDYEMHWIRQPPGEGLEWIGAIDPKTGDTAYSESFQDRVTLTADKSTSTAYMELSSLTSEDTAVYYCTRFYSYTYWGQGTLVTVSSASTKGPSVFPLAPSSKSTSGGTAALGCLVKDYFPEPVTVSWNSGALTSGVHTFPAVLQSSGLYSLSSVVTVPSSSLGTQTYICNVNHKPSNTKVDKKVEPKSCDKTHTCPPCPAPELLGGPDVFLFPPKPKDTLMISRTPEVTCVVVDVSHEDPEVKFNWYVDGVEVHNAKTKPREEQYNSTYRVVSVLTVLHQDWLNGKEYKCKVSNKALPLPEEKTISKAKGQPREPQVYTLPPSRDELTKNQVSLTCLVKGFYPSDIAVEWESNGQPENNYKTTPPVLDSDGSFFLYSKLTVDKSRWQQGNVFSCSVMHEALHNHYTQESLSLSP light: DIVMTQSPLSLPVTPGEPASISCQASESLVHSNRNTYLHWYLQKPGQSPQLLIYKVSNRFSGVPDRFSGSGSGTDFTLKISRVEAEDVGVYYCSQNTHVPPTFGQGTKVEIERTVAAPSVFIFPPSDEQLKSGTASVVCLLNNFYPREAKVQWKVDNALQSGNSQESVTEQDSKDSTYSLSSTLTLSKADYEKHKVYACEVTHQGLSSPVTKSFNRGEC | 1 | 4.1 |  | Kd [1]: 4.1 nM; KD ratio 1 (KD of GpH7-G1d/GpL16-k0 divided by KD of the antibody) [2]: 261 fold; KD ratio 2 (KD of GpH7-A5/GpH7-B3/GpL16-k0 divided by KD of the antibody) [2]: 347 fold; KD ratio (KD of GpH7-TA7/GpH7-B78/GpL16-k0 divided by KD of the antibody) [4]: 1 fold; Kd [6]: 4.7 nM
2 | GpH7-TA22/GpH7-B78/GpL16-k0 (antibody, human IgG1, kappa, Heterodimerized anti-glypican-3 IgG1 variant) heavy 1: QVQLVQSGAEVKKPGASVTVSCKASGYTFTDYEMHWIRQPPGEGLEWIGAIDPKTGDTAYSESFQDRVTLTADKSTSTAYMELSSLTSEDTAVYYCTRFYSYTYWGQGTLVTVSSASTKGPSVFPLAPSSKSTSGGTAALGCLVKDYFPEPVTVSWNSGALTSGVHTFPAVLQSSGLYSLSSVVTVPSSSLGTQTYICNVNHKPSNTKVDKKVEPKSCDKTHTCPPCPAPEYLWGPDVFLFPPKPKDTLMISRTPEVTCVVVDVSHEDPEVKFNWYVDGVEVHNAKTKPREEQYNATYRVVSVLTVLHQDWLNGKEYKCKVSNKALPAPIEKTISKAKGQPREPQVYTLPPSRKELTKNQVSLTCLVKGFYPSDIAVEWESNGQPENNYKTTPPVLDSDGSFFLYSKLTVDKSRWQQGNVFSCSVMHEALHNRYTQKSLSLSP heavy 2: QVQLVQSGAEVKKPGASVTVSCKASGYTFTDYEMHWIRQPPGEGLEWIGAIDPKTGDTAYSESFQDRVTLTADKSTSTAYMELSSLTSEDTAVYYCTRFYSYTYWGQGTLVTVSSASTKGPSVFPLAPSSKSTSGGTAALGCLVKDYFPEPVTVSWNSGALTSGVHTFPAVLQSSGLYSLSSVVTVPSSSLGTQTYICNVNHKPSNTKVDKKVEPKSCDKTHTCPPCPAPELLGGPDVFLFPPKPKDTLMISRTPEVTCVVVDVSHEDPEVKFNWYVDGVEVHNAKTKPREEQYNSTYRVVSVLTVLHQDWLNGKEYKCKVSNKALPLPEEKTISKAKGQPREPQVYTLPPSRDELTKNQVSLTCLVKGFYPSDIAVEWESNGQPENNYKTTPPVLDSDGSFFLYSKLTVDKSRWQQGNVFSCSVMHEALHNHYTQESLSLSP light: DIVMTQSPLSLPVTPGEPASISCQASESLVHSNRNTYLHWYLQKPGQSPQLLIYKVSNRFSGVPDRFSGSGSGTDFTLKISRVEAEDVGVYYCSQNTHVPPTFGQGTKVEIERTVAAPSVFIFPPSDEQLKSGTASVVCLLNNFYPREAKVQWKVDNALQSGNSQESVTEQDSKDSTYSLSSTLTLSKADYEKHKVYACEVTHQGLSSPVTKSFNRGEC | 3.2 | 1.3 |  | KD ratio (KD of GpH7-TA22/GpH7-B78/GpL16-k0 divided by KD of the antibody) [7]: 1 fold; Kd [8]: 1.3 nM
3 | J142-z72/L180-k (antibody, human IgG4 S228P, kappa, also called homomeric antibody against FX) heavy: QVQLVQSGSELKKPGASVKVSCKASGYTFTDNNMDWVRQAPGQGLEWMGDINTRSGGSIYNEEFQDRVTMTIDKSTGTAYMELSSLRSEDTAVYYCARRRSYGYYHDEWGEGTLVTVSSASTKGPSVFPLAPCSRSTSESTAALGCLVKDYFPEPVTVSWNSGALTSGVHTFPAVLQSSGLYSLSSVVTVPSSSLGTKTYTCNVDHKPSNTKVDKRVESKYGPPCPPCPAPEFLGGPSVFLFPPKPKDTLMISRTPEVTCVVVDVSQEDPEVQFNWYVDGVEVHNAKTKPREEQFNSTYRVVSVLTVLHQDWLNGKEYKCKVSNKGLPSSIEKTISKAKGQPREPQVYTLPPSQEEMTKNQVSLTCLVKGFYPSDIAVEWESNGQPENNYKTTPPVLDSDGSFFLYSRLTVDKSRWQEGNVFSCSVMHEALHNRFTQKSLSLSP light: DIQMTQSPSSLSASVGDRVTITCKASRNIERNLAWYQQKPGQAPELLIYSASRKESGVPDRFSGSRYGTDFTLTISSLQPEDLATYYCQQYYSPPLTFGGGTKVEIKRTVAAPSVFIFPPSDEQLKSGTASVVCLLNNFYPREAKVQWKVDNALQSGNSQESVTEQDSKDSTYSLSSTLTLSKADYEKHKVYACEVTHQGLSSPVTKSFNRGEC |  |  | no binding | 
4 | J142-z73/L180-k (antibody, human IgG4 S228P, kappa, also called homomeric antibody against FX) heavy: QVQLVQSGSELKKPGASVKVSCKASGYTFTDNNMDWVRQAPGQGLEWMGDINTRSGGSIYNEEFQDRVTMTIDKSTGTAYMELSSLRSEDTAVYYCARRRSYGYYHDEWGEGTLVTVSSASTKGPSVFPLAPCSRSTSESTAALGCLVKDYFPEPVTVSWNSGALTSGVHTFPAVLQSSGLYSLSSVVTVPSSSLGTKTYTCNVDHKPSNTKVDKRVESKYGPPCPPCPAPEFLGGPSVFLFPPKPKDTLMISRTPEVTCVVVDVSQEDPEVQFNWYVDGVEVHNAKTKPREEQFNSTYRVVSVLTVLHQDWLNGKEYKCKVSNKGLPSSIEKTISKAKGQPREPQVYTLPPSQEEMTKNQVSLTCLVKGFYPSDIAVEWESNGQPENNYKTTPPVLDSDGSFFLYSRLTVDKSRWQEGNVFSCSVMHEALHNRFTQESLSLSP light: DIQMTQSPSSLSASVGDRVTITCKASRNIERNLAWYQQKPGQAPELLIYSASRKESGVPDRFSGSRYGTDFTLTISSLQPEDLATYYCQQYYSPPLTFGGGTKVEIKRTVAAPSVFIFPPSDEQLKSGTASVVCLLNNFYPREAKVQWKVDNALQSGNSQESVTEQDSKDSTYSLSSTLTLSKADYEKHKVYACEVTHQGLSSPVTKSFNRGEC |  |  | no binding | 
5 | J300-z107/L210-k (antibody, human IgG4 S228P, kappa, z107 carries H435R; also called homomeric antibody against FX) heavy: QVQLVQSGSELKKPGASVKVSCKASGYTFTDNNMDWVRQAPGQGLEWMGDINTRSGGSIYNEEFQDRVIMTVDKSTDTAYMELSSLRSEDTAVYHCARRKSYGYYLDEWGEGTLVTVSSASTKGPSVFPLAPCSRSTSESTAALGCLVKDYFPEPVTVSWNSGALTSGVHTFPAVLQSSGLYSLSSVVTVPSSSLGTQTYTCNVDHKPSNTKVDKRVESKYGPPCPPCPAPEFLGGPSVFLFPPKPKDTLMISRTPEVTCVVVDVSQEDPEVQFNWYVDGVEVHNAKTKPREEQYNSTYRVVSVLTVLHQDWLNGKEYKCKVSNKGLPSSIEKTISKAKGQPREPQVYTLPPSQEEMTKNQVSLTCLVKGFYPSDIAVEWESNGQPENNYKTTPPVLDSDGSFFLYSKLTVDKSRWQEGNVFSCSVMHEALHNRYTQESLSLSP light: DIQMTQSPSSLSASVGDRVTITCKASRNIERNLAWYQQKPGQAPELLIYSASRKESGVPDRFSGSRYGTDFTLTISSLQPEDIATYYCQQYSSPPLTFGGGTKVEIKRTVAAPSVFIFPPSDEQLKSGTASVVCLLNNFYPREAKVQWKVDNALQSGNSQESVTEQDSKDSTYSLSSTLTLSKADYEKHKVYACEVTHQGLSSPVTKSFNRGEC |  |  | no binding | 
